Experimental data published in the supplement of paper PMC12042874.
± gives the uncertainty stated by the source.

Assay: amyloid nucleation score (Sup35N fusion, yeast selection) (log enrichment); library NNK3; higher = more nucleation; inactive = no reads after selection
Summary of the method: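 Growth for 7 days at 30°C on medium lacking adenine and uracil followed a 24-hour induction with 100 μM copper sulfate of psi-negative yeast expressing peptides of 20 random codons fused to Sup35N. Input and output plasmid inserts were sequenced with Illumina, and sequences with under 100 input reads were excluded. Nucleation score is the DiMSum log enrichment of output over input reads, centred on the mode score of non-aggregating sequences.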

Row | Substance | amyloid nucleation score
1 | EFLQWFDFLQMMAPSLRSAN | inactive
2 | WALWICC | 0.83 ± 0.13
3 | GSVGSRADVFLGCGDEWRQA | inactive
4 | ANYVYNQTVMCS | inactive
5 | VRLYYSKPRLKRGDSCVEKY | inactive
6 | GAYVKPNEWCEGFENSSFEV | inactive
7 | YTCNST | inactive
8 | NLGRFLFSICCASLFAGCNG | -0.245 ± 0.99
9 | LSFYTFGNNWTKRCNCPTAS | inactive
10 | GVGGPDGCTGNDTFMRQYTN | inactive
11 | NRSEEIFVSSATELTRLIVH | inactive
12 | LMKMKRFLQLWTIGDGASKS | 1.81 ± 0.09
13 | SWCCR | 1.4 ± 0.1
14 | GIYCMSVSWFNVDLDTTGNT | inactive
15 | NGSVSVKSLIFLDDCCSSWA | inactive
16 | WLSYIDGSKVELIVQAW | inactive
17 | SGKFTSGLIVRSASIGLYST | 0.747 ± 0.26
18 | LGFLNWSRQGGV | 0.947 ± 0.25
19 | FYYNVRLRRAGWAYRITWTT | inactive
20 | ETAYSASVRDT | inactive
21 | RIMLVYCMGSRGIAMFCQHN | inactive
22 | CWPSVMFKISADNSGWFGVD | inactive
23 | DTYRV | inactive

Row | Substance | amyloid nucleation score
24 | SILKFNQSLQSLFSNYYHLC | 1.14 ± 0.097
25 | IYPVNFGWLLGFCAHPAIYD | inactive
26 | RDHMSS | inactive
27 | TVLCAC | inactive
28 | SHNGLKTLNGSFLAYLSCRA | 0.904 ± 0.16
29 | VAETYLRTA | inactive
30 | ERMQHGSLSVRYFKKSSVSG | inactive
31 | EFVDSLLKRGGLFRVFGASS | inactive
32 | ICSII | inactive
33 | NEVETESCIELTFPMQYWQV | 2.24 ± 0.093
34 | LFADWQG | inactive
35 | MLRSDPS | inactive
36 | NLRWV | 0.478 ± 0.25
37 | FLTDRPYRGCG | inactive
38 | AVGLRRPLCMYF | inactive
39 | RMPYKMQFFCNLWLSVYSTL | inactive
40 | GGSARCNRLCWYAVLDVLLL | inactive
41 | EARLTSLCKKQYEF | inactive
42 | TASWVLFVAVVCICLTLFSY | 0.85 ± 0.3
43 | LTDDSCCPRR | inactive
44 | RIRMSCYLIVYIGIACGYIS | inactive
45 | VVLVFLRVTRYPSQKMVSAL | inactive
46 | GYPFSRLSSVV | inactive

Row | Substance | amyloid nucleation score
47 | YVSSRNRHYGSPYLGVCVFK | inactive
48 | VVRYHSMYKDCYFLKRFVIL | inactive
49 | EKNNNRDGTDAVVIGNHKAG | inactive
50 | LFGEGKFKYWMSVKKFGSGI | inactive
51 | KVKRFY | 1.17 ± 0.19
52 | YFGDPSSRMKCFYPYVSVCR | inactive
53 | VSDILADCPIIRPGGYCCVS | inactive
54 | CVFDSCSSLYKDMYTLCHVS | inactive
55 | CKNLWRVLGISPTRSSSMRV | inactive
56 | LEHCLCGLKYPDE | inactive
57 | DNISHLAFCFNMALWYSNQS | 1.23 ± 0.14
58 | TWCFDSACNANGTWR | inactive
59 | MFMMTKRNCNSTCCHYKFRV | 0.656 ± 0.16
60 | SYRASSGCHWREPHGLSDVR | 0.897 ± 0.21
61 | LVFTWYFMCNVMGIFDRGTR | 2.06 ± 0.094
62 | RCNHSCFGSIMGCVVLCPGE | 1.33 ± 0.13
63 | ASARRCVSVVLIHTAKIHRN | inactive
64 | IFNLMFYFVVRNE | 3.01 ± 0.071
65 | NKTDCETC | inactive
66 | LLEIPNSRDGFHRGSTVGDL | inactive
67 | HNNIAFSLVVNDESVLWCFN | 1.97 ± 0.053
68 | LSSIWKGLRGLFIFFWHIKK | inactive
69 | SSHIRWHGN | inactive

Row | Substance | amyloid nucleation score
70 | LACLILS | inactive
71 | IPALIVISQYRGANRFDCAF | inactive
72 | EHNAKEHITLGLTSWPNRLG | inactive
73 | IRNGYSRICRIQRLGSMGM | inactive
74 | KSFELYSKNVMYDSVLGVCL | inactive
75 | SYGKTFAMSYVW | inactive
76 | NDTWCVLFRTPKLLCMSVFT | inactive
77 | LFHDLGFAD | inactive
78 | TFDPKL | inactive
79 | WVSSDRHSSLVNWKHGLSQE | inactive
80 | RVSNGPIIYRRMHAAGDNLT | inactive
81 | MWFAKAGTCNGSWLDMLSGW | inactive
82 | RSDSWLIYSSPINMM | inactive
83 | LQFNISYRMFSEVCVFLLVW | inactive
84 | RLYLNSFSHQNSCPRDLDGL | 0.969 ± 0.1
85 | TEYTILLASRNLFPTR | 0.598 ± 0.25
86 | FSGGCSVYSMQLFLS | 1.43 ± 0.11
87 | FYSIPMLRLVVNNVLKLTAI | inactive
88 | CMRYVGSPDNRHWASGKGIP | inactive
89 | PLFSYLRHSTGCTFAIPNSE | inactive
90 | SFWTQ | inactive
91 | VWNFFSMGSFSVDC | 1.28 ± 0.087
92 | VIFVGFWQWYSYISELDCNP | inactive

Row | Substance | amyloid nucleation score
93 | RGSDIMAFAVDYTDNKSECS | inactive
94 | CRYSLWSFSQMGEWMPRCER | inactive
95 | LSWRRCA | inactive
96 | NVCGNDGNR | inactive
97 | DTQQENCRTRGVRRGPRFCG | inactive
98 | YIFVT | inactive
99 | SHGHYCIVFVFTRL | inactive
100 | LLLPIS | inactive
101 | IVRYTHSSLVYFTDEMMVNR | 1.19 ± 0.12
102 | RSAPCC | inactive
103 | PLGSLHSATQRYVSRLGILS | inactive
104 | NVVLSVGMFLLKWS | 1.31 ± 0.09
105 | AVYQLDMCDLVMVSLDGTVR | inactive
106 | PVRSR | inactive
107 | YRLSLRH | inactive
108 | CEEPFLNCHFLDY | inactive
109 | FRLLLSKMAYFRADMTYDDF | inactive
110 | IEQGGI | inactive
111 | TSLGNGVSHGTLGFILTVNT | inactive
112 | SGCDLLFFYYHRRTVPLANW | inactive
113 | VSAFFRSKG | inactive
114 | AQSEAGDF | inactive
115 | DAKKNLLVGVFCHYRSSQER | inactive

Row | Substance | amyloid nucleation score
116 | MLDYVF | inactive
117 | RSQSVQKIEATLSLLIGAPK | inactive
118 | QCSIFIIC | 2.41 ± 0.076
119 | NVCRLRIFRSVYLLGYYTST | inactive
120 | LVSTEKWEYLGQCARRELRF | -0.884 ± 2.4
121 | AAETLTRSWLLRSARLMKDG | -0.233 ± 1.4
122 | WACCGICSCL | 2.02 ± 0.094
123 | ESVRGRLFRV | inactive
124 | LAAQIMNSLCRLELSQALSR | inactive
125 | NLSRRIWTHYHTQVNLIGID | inactive
126 | QTEFSIGPYIPTEATSRTCS | -0.451 ± 1
127 | MLIQPWSSSRNYVPPAEYW | inactive
128 | QHTGGVLRRTMFINRVSRRM | inactive
129 | CFSLGVCGQAKVNVWNNIYV | 2.71 ± 0.054
130 | SFYEEGFVSYLDIRGIVYGA | inactive
131 | GNALSIEVDGSIK | inactive
132 | RVYFKTGFPMVLLSKKRGSE | 0.952 ± 0.19
133 | WFASNPIMLPSFYLIPWKRT | inactive
134 | SRFKFTAESLISVTVERLFL | 0.626 ± 0.21
135 | VVGQKTIVGTLIHFSFKVLA | 1.26 ± 0.14
136 | SNIGVGKTYHRCTFFFWLIC | 0.989 ± 0.24
137 | YKVILTCSKC | inactive
138 | SYSGIYILSSFAATSSFILS | 0.46 ± 0.2

Row | Substance | amyloid nucleation score
139 | TTNSQAWPMLTAVRLVYNEG | inactive
140 | KTKQIYDGPLGHSYADKCNV | inactive
141 | WNVELSNLVEIMGRCACYSS | 0.406 ± 0.35
142 | QIRAIMYVFGISVSAVLGAK | -0.19 ± 0.49
143 | HLSLRNNNAPDYPSGNSFWE | inactive
144 | AYLSFLLFCCCKTLVWLVLR | 0.841 ± 0.13
145 | ISVVMDNSACG | inactive
146 | IETAGSTHSSTWGDYSNRLC | inactive
147 | AIALLSPSDYVHSLGFHMVA | inactive
148 | GKKDRVRQTYFYMNSYIHW | 1.65 ± 0.085
149 | VDRYLCNFSGGTLYGSLSQD | inactive
150 | QFLKGDCRYLDPGMDLDRG | inactive
151 | FAFSNLTKPVFKI | inactive
152 | AFTCYELAGIWRNVTVPCYL | inactive
153 | PYMWGFIKRWNRNCAGSFAL | inactive
154 | GCNEHI | inactive
155 | RALVFIIQVVFRFPCTAGIL | inactive
156 | QLIELGRVVTCV | inactive
157 | IEKASACNG | inactive
158 | MFSYSNSHFSLRLMWRGLRF | inactive
159 | LHGCTEITKGNYLPNNAVD | inactive
160 | RMSVSSFRVVWSTIAYTKST | inactive
161 | FYSLNSFSFYASRVITDNRV | 1.09 ± 0.13
